According to paper PMC2797608:

Molecular target: methyltransferase domain of human GLP (residues 951-1235) (human)
Assay: not stated; affinity of GLP for H3 peptides; the method of the affinity is not told; the methods describe only a SAHH-coupled kinetic assay of GLP (Km, kcat; peptide 2 uM to 4 mM, 70 uM SAM, room temperature, 25 mM potassium phosphate pH 8)

A decrease in affinity against the peptide not methylated at K4 of 43% was found for H3K9 peptide trimethylated at lysine 4 in this work.
